Measured values as given in patent US20100022453A1 (UNIVERSITY OF ROCHESTER, published 2010).

T1: NgR1-Fc (mouse NogoR/Fc, R&D Systems) (mouse, UniProt Q99PI8 27-447)
T1 construct: also called soluble NgR1-Fc
T1 sequence (looked up): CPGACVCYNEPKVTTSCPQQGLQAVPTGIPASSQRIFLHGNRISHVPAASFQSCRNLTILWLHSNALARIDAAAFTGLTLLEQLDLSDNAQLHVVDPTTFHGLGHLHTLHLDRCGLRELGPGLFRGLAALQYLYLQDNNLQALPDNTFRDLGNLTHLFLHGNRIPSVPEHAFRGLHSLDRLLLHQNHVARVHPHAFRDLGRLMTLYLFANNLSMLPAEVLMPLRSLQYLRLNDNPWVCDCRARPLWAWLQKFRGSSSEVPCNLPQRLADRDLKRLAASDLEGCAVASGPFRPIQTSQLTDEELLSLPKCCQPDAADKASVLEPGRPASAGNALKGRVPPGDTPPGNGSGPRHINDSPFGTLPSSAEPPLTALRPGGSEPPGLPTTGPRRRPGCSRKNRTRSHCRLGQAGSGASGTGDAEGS

B1: AP-FGF4 (mouse) (ligand, UniProt P11403 30-202, looked up)
chain: APNGTRHAELGHGWDGLVARSLARLPVAAQPPQAAVRSGAGDYLLGLKRLRRLYCNVGIGFHLQVLPDGRIGGVHADTRDSLLELSPVQRGVVSIFGVASRFFVAMSSRGKLFGVPFFTDECKFKEILLPNNYNAYESYAYPGMFMALSKNGRTKKGNRVSPTMKVTHFLPRL
notes: not shown: human placental alkaline phosphatase (AP) tag
B2: rat NgR2, full-length, expressed on COS-7 cells (receptor)
chain: CPMLCTCYSSPPTVSCQANNFSSVPLSLPPSTQRLFLQNNLIRSLRPGTFGPNLLTLWLFSNNLSTIYPGTFRHLQALEELDLGDNRHLRSLEPDTFQGLERLQSLHLYRCQLSSLPGNIFRGLVSLQYLYLQENSLLHLQDDLFADLANLSHLFLHGNRLRLLTEHVFRGLGSLDRLLLHGNRLQGVHRAAFHGLSRLTILYLFNNSLASLPGEALADLPALEFLRLNANPWACDCRARPLWAWFQRARVSSSDVTCATPPERQGRDLRTLRDTDFQACPPPTPTRPGSRARGNSSSNHLYGVAEAGAPPADPSTLYRDLPAEDSRGRQGGDAPTEDDYWGGYGGEDQRGEQTCPGAAC
notes: also called NgR2 in COS cells
B3: AP-FGF21 (mouse) (ligand, UniProt Q9JJN1 29-210, looked up)
chain: AYPIPDSSPLLQFGGQVRQRYLYTDDDQDTEAHLEIREDGTVVGAAHRSPESLLELKALKPGVIQILGVKASRFLCQQPDGALYGSPHFDPEACSFRELLLEDGYNVYQSEAHGLPLRLPQKDSPNQDATSWGPVRFLPMPGLLHEPQDQAGFLPPEPPDVGSSDPLSMVEPLQGRSPSYAS
notes: as for B1
B4: Nogo66-Npn1 (human Nogo66 fused to the transmembrane and cytoplasmic portion of rat neuropilin-1) on COS-7 cells (other, human;rat, UniProt Q9NQC3 1055-1120, looked up)
chain: RIYKGVIQAIQKSDEGHPFRAYLESEVAISEELVQKYSNSALGHVNCTIKELRRLFLVDDLVDSLKILITIIAMSALGVLLGAVCGVVLYCACWHNGMSERNLSALENYNFELVDGVKLKKDKLNPQSNYSEA
notes: domain: Nogo66;domain: transmembrane and cytoplasmic portion; Chimeric cell-surface form of Nogo66; also called Nogo66-Npn1 in COS cells
B5: AP-FGF8 (mouse) (ligand, UniProt P37237-2 23-215, looked up)
chain: QVTVQSSPNFTQHVREQSLVTDQLSRRLIRTYQLYSRTSGKHVQVLANKRINAMAEDGDPFAKLIVETDTFGSRVRVRGAETGLYICMNKKGKLIAKSNGKGKDCVFTEIVLENNYTALQNAKYEGWYMAFTRKGRPRKGSKTRQHQREVHFMKRLPRGHHTTEQSLRFEFLNYPPFTRSLRGSQRTWAPEPR
notes: also called FGF8b; not shown: human placental alkaline phosphatase (AP) tag
B6: AP-FGF2 (mouse), alkaline phosphatase tagged FGF2 (ligand, UniProt P15655 10-154, looked up)
chain: PALPEDGGAAFPPGHFKDPKRLYCKNGGFFLRIHPDGRVDGVREKSDPHVKLQLQAEERGVVSIKGVCANRYLAMKEDGRLLASKCVTEECFFFERLESNNYNTYRSRKYSSWYVALKRTGQYKLGSKTGPGQKAILFLPMSAKS
notes: also called bFGF; basic FGF; not shown: human placental alkaline phosphatase (AP) tag
B7: rat NgR1 (Nogo-66 receptor), full-length, expressed on cells (receptor)
chain: CPGACVCYNEPKVTTSCPQQGLQAVPTGIPASSQRIFLHGNRISYVPAASFQSCRNLTILWLHSNALAGIDAAAFTGLTLLEQLDLSDNAQLRVVDPTTFRGLGHLHTLHLDRCGLQELGPGLFRGLAALQYLYLQDNNLQALPDNTFRDLGNLTHLFLHGNRIPSVPEHAFRGLHSLDRLLLHQNHVARVHPHAFRDLGRLMTLYLFANNLSMLPAEVLVPLRSLQYLRLNDNPWVCDCRARPLWAWLQKFRGSSSEVPCNLPQRLAGRDLKRLAASDLEGCAVASGPFRPFQTNQLTDEELLGLPKCCQPDAADKASVLEPGRPASAGNALKGRVPPGDTPPGNGSGPRHINDSPFGTLPGSAEPPLTALRPGGSEPPGLPTTGPRRRPGCSRKNRTRSHCRLGQAGSGSSGTGDAEGS
notes: also called Nogo receptor NgR1; NgR1 in COS cells
B8: rat NgR3 expressed on COS-7 cells (receptor, UniProt Q80WD0 25-424, looked up)
chain: CPRDCVCYPSPMTVSCQAHNFAAIPEGIPEDSERIFLQNNHITFLQQGHFSPAMVTLWIYSNNITFIAPNTFEGFVHLEELDLGDNRQLRTLAPETFQGLVKLHALYLYKCGLSSLPAGIFGGLHSLQYLYLQDNHIEYLQDDIFVDLVNLSHLFLHGNKLWSLGQGIFRGLVNLDRLLLHENQLQWVHHKAFHDLHRLTTLFLFNNSLTELQGDCLAPLVALEFLRLNGNAWDCGCRARSLWEWLRRFRGSSSVVPCATPELRQGQDLKSLRVEDFRNCTGPASPHQIKSHTLSTSDRAARKEHHPSHGASRDKGHPHGHLPGSRSGSKKPGKNCTSHRNRNQISKGSAGKELPELQDYAPDYQHKFSFDIMPTARPKRKGKCARRTPIRAPSGVQQAS
notes: whole, on cells; also called NgR3 in COS cells

Tests used:
[1] = molecular target: B7; assay: AP-ligand binding to NgR1 on COS cells
Procedure: (§1) Techniques for ligand binding to NgR1 on COS cells is described in detail in Venkatesh et al. (2005) Journal of Neuroscience 25:808-22, which is incorporated herein by reference in its entirety at least for the methods taught therein. Briefly, receptor constructs were expressed transiently in COS-7 cells in 24-well plates coated with poly-D-lysine (PDL; 50 μg/ml), using Lipofectamine 2000. At 24 h after transfection the cells were rinsed and incubated for 75 min at ambient temperature with alkaline phosphatase tagged FGF1, FGF2, FGF4, FGF8, FGF9, and FGF21. To monitor bound ligand, plates were developed with NBT/BCIP substrate; the color reaction was stopped by two rinses in PBS. For quantification of ligand binding the cells were processed as described above; after ligand incubation the cells were rinsed in HBHA and lysed in 20 mM Tris, pH 8.0, 0.1% Triton X-100. The lysates were incubated at 65° C. for 60 min and spun at 10,000×g for 5 min. The relative AP activity in supernatants was normalized to cell surface receptor expression, using anti-myc (1:1000), anti-NgR1 (1:1000), anti-NgR2 (1:1000), or anti-NgR3 (1:200) antibodies, as described previously (Giger et al., Neuron 21:1079-92, 1998). Scatchard plot analysis was performed analogous to a previous study (Kolodkin et al., Cell 90:753-62, 1997).

[2] = molecular target: B2; assay: AP-ligand binding to NgR2 on COS cells
Procedure: as §1

[3] = molecular target: T2, AP-FGF9 (mouse) (human; mouse, UniProt P54130 4-208); assay: AP-ligand binding to NgR2 on COS-7 cells
Procedure: as §1

[4] = molecular target: T3, AP-sNgR1^CT+stalk (Phe278-Glu445) (human; rat); assay: AP-fusion protein binding to transfected COS-7 cells; (-) = no binding above background
T3 construct: Expressed in HEK293T cells and used as conditioned supernatant

[5] = molecular target: B7; assay: AP-ligand binding to NgR1 on COS-7 cells
Procedure: as §1

[6] = molecular target: B2; assay: AP-ligand binding to NgR2 on COS-7 cells
Procedure: as §1

[7] = molecular target: B7; assay: AP-tagged ligand binding to NgR1 on COS cells
Procedure: as §1

[8] = molecular target: B7; assay: Scatchard plot analysis of AP-ligand binding to NgR1 on COS-7 cells
Procedure: as §1, with “The relative AP activity in supernatants was normalized to cell surface receptor expression, using anti-myc (1:1000), anti-NgR1 (1:1000), anti-NgR2 (1:1000), or anti-NgR3 (1:200) antibodies, as described previously (Giger et al., Neuron 21:1079-92, 1998). Scatchard plot analysis was performed analogous to a previous study (Kolodkin et al., Cell 90:753-62, 1997).” left out
To address whether NgR1 interacts directly with FGF2, affinity precipitation experiments were performed. […] The complexes of ¹²⁵I-FGF2:NgR1-Fc and ¹²⁵I-FGF2:FGFR1-Fc run at apparent molecular weights of 220- and 250-kDa and higher molecular weight complexes containing ¹²⁵I-FGF2 are detected as well (FIG. 3C).

[9] = molecular target: T1, NgR1-Fc (mouse NogoR/Fc, R&D Systems); assay: affinity precipitation with NgR1-Fc on Protein A/G beads, anti-AP Western blot
Procedure: NgR1-Fc (0.5 μg, R&D Systems) and AP-tagged ligands (1.5 nM final conc.) were mixed in DMEM containing 0.1% BSA and protease inhibitor cocktail and were incubated at 4° C. for 2 h. AP-ligands bound to NgR1-Fc were precipitated with Protein A/G agarose beads after 2 h at 4° C. Samples were rinsed extensively in washing buffer (20 mM Tris-HCl, pH 7.5, 150 mM NaCl, 1% NP40, 5 mM EDTA) and analyzed by Western blotting using an anti-AP antibody. For cross-linking experiments, NgR1-Fc, FGFR1D(IIIb)/Fc, TROY-Fc, or ephrinB3-Fc (R&D Systems) (each at 13 nM), were incubated with 40 nM ¹²⁵I-FGF2 (specific activity: ˜50 μCi/μg, MP Biochem.) with or without the indicated concentrations of cold FGF2 or insulin for 2 h at room temperature in PBS. Cross-linking was initiated by adding BS³ (bis[sulfosuccinimidyl]suberate, Pierce, Rockford, Ill.) to a final concentration of 2 mM and incubating for 30 min at room temperature. The reaction was stopped by adding 2 μl of 1 M Tris-HCl (pH 7.4) and protein complexes were analyzed by SDS-PAGE. Gels were subsequently fixed, dried, and subjected to autoradiography.

[10] = molecular target: T2, AP-FGF9 (mouse); assay: AP-ligand binding to NgR1 on COS-7 cells
Procedure: as §1

T3 sequence (P05187 other isoform, or with tags, fused parts or gaps): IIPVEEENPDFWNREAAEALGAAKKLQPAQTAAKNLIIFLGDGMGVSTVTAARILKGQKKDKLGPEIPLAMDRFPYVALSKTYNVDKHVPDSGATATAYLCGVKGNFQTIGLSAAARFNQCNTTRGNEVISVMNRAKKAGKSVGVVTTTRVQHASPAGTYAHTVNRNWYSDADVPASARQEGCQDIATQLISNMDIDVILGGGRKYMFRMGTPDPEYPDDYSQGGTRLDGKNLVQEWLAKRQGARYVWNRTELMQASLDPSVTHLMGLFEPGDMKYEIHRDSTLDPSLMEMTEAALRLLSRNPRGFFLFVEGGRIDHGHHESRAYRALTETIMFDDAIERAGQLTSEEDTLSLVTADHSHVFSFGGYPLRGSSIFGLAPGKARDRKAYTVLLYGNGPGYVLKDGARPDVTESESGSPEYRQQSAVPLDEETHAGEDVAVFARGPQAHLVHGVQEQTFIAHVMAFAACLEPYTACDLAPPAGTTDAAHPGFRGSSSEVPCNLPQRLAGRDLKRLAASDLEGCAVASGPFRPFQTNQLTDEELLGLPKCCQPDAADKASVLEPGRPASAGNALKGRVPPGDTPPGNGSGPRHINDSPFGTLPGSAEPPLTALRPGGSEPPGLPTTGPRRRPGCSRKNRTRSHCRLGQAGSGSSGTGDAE

## B1
[1]
  binding result: binds
[2]
  binding result: no binding

## B2
[3]
  binding result: no binding
[4]
  binding result: no binding

## B3
[2]
  binding result: no binding
[5]
  binding result: no binding

## B4
[4]
  binding result: no binding

## B5
[2]
  binding result: no binding
[5]
  binding result: no binding

## B6
[6]
  binding result: no binding
[7]
  Kd: ~10 nM
[8]
  Kd: 16.9 nM
[9]
  binding result: binds

## B7
[10]
  binding result: no binding
[4]
  binding result: no binding

## B8
[4]
  binding result: no binding
